Measured values: patent US20140056908

Biological target: T1, malaria vaccine candidate protein Pfs48 with PR-1a signal peptide, 6xHis tag and KDEL
T1 chain: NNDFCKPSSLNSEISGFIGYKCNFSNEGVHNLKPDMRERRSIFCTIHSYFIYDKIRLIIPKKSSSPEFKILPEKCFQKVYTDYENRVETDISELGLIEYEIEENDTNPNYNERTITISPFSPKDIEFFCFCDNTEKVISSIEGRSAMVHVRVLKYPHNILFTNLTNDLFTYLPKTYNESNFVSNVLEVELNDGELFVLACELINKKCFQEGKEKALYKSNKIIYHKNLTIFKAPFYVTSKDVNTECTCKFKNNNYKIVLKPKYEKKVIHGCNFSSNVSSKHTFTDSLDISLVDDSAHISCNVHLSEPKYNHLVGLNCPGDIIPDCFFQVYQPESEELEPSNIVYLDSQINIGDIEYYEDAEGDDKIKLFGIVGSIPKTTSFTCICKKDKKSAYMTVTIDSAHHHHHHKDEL

B1: endoglycosidase F from Elizabethkingia meningoseptica (PNGaseF) with PR-1a signal peptide, FLAG tag and KDEL (protein)
chain: APADNTVNIKTFDKVKNAFGDGLSQSAEGTFTFPADVTTVKTIKMFIKNECPNKTCDEWDRYANVYVKNKTTGEWYEIGRFITPYWVGTEKLPRGLEIDVTDFKSLLSGNTELKIYTETCLAKGREYSVDFDIVYGTPDYKYSAVVPVIQYNKSSIDGVPYGKAHTLGLKKNIQLPTNTEKAYLRTTISGWGHAKPYDAGSRGCAEWCFRTHTIAINNANTFQHQLGALGCSANPINNQSPGNWAPDRAGWCPGMAVPTRIDVLNNSLTGSTFSYEYKFQSWTNNGTNGDAFYAISSFVIAKSNTPISAPVVTNDYKDDDDKDEL
  electrophoretic mobility of Pfs48 on Western blot (deglycosylation on co-expression in planta): the electrophoretic mobility of the glycosylated Pfs48 (control, which was expressed w/o PNGaseF) was different (less mobility) compared to the non-glycosylated form of Pfs48 that was co-expressed with PNGaseF
